Test [1] concerns the target T1, C-10 peptide (PSMGFR minus 10 amino acids from the C-terminus).
T1 construct: also called C-10 PSMGFR; PSMGFR C-10
T1 peptide: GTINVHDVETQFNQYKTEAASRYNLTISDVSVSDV
In words: ELISA (FIG. 201C). On the procedure:
(§1) FIG. 201A-201C show graphs of ELISA assays to determine the binding of another set of antibodies generated by immunizing animals with the PSMGFR peptide. […] F3, B12, B2, B7, B9, 8C7F3 and H11 all bound to the PSMGFR peptide and to the N−10 peptide.
(§2) This same ELISA assay was performed on the antibodies of the invention (FIG. 64-66 and FIG. 201). Note that only 20A10 exactly matches the binding profile of MNC2 and MNE6. 25E6, 28F9 and 18G12 are all able to bind to the N−10 peptide. 18B4 is the only antibody raised against the PSMGFR peptide that requires the 10 most N-terminal amino acids of the peptide. The color of the bars for each antibody in the ELISA graph are color coded to match the deductive cognate sequence, or a portion thereof, of that antibody. In addition, another set of antibodies was assayed by ELISA (FIG. 201). Of this set, B12, B2, B7, B9, 8C7F3, and H11 bound to the PSMGFR peptide, bound to the N−10 peptide, but not to the C−10 peptide (FIG. 201). Although these antibodies were raised against the N+20/C−27 peptide, all but one, 45C11, still bind to the PSMGFR peptide, albeit at the N-terminal portion of PSMGFR.
For orientation: ELISA stands for enzyme-linked immunosorbent assay.

The target in test [2] is T2, PSMGFR peptide (Primary Sequence of the MUC1 Growth Factor Receptor).
T2 construct: synthetic peptide immobilised on ELISA plates; also called MUC1* peptide; MUC1* extra cellular domain peptide
T2 peptide: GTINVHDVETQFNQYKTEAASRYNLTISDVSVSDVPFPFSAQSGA
In words: ELISA (FIG. 201A).

In test [3] the target is T3, N-10 peptide (PSMGFR minus 10 amino acids from the N-terminus).
T3 construct: also called N-10 PSMGFR; PSMGFR N-10
T3 peptide: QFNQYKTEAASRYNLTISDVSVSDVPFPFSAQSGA
In words: ELISA (FIG. 201B). As for the experimental part:
as §1, §2

The target of test [4] is T3, N-10 peptide (PSMGFR minus 10 amino …). Nature of the test: ELISA.
Test [5] concerns the target T2, PSMGFR peptide (Primary Sequence of the …). In words: ELISA.
Test [6] shares this target. In words: ELISA (FIG. 65).
Test [7] concerns the target T4, N+20/C-27 peptide (20 amino acids added onto the N-terminus and 27 deleted from the C-terminus of PSMGFR).
T4 peptide: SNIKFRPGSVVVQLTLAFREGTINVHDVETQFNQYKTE
Nature of the test: ELISA.

Test [8] deals with T1, C-10 peptide (PSMGFR minus 10 amino …). In words: ELISA.
Test [9] has as its target T5, N+9/C-9 peptide (9 amino acids added onto the N-terminus and 9 deleted from the C-terminus of PSMGFR).
T5 peptide: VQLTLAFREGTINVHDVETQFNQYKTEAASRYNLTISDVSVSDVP
In words: ELISA (FIG. 64A).

The target in test [10] is T3, N-10 peptide (PSMGFR minus 10 amino …). Nature of the test: ELISA (FIG. 64).

B1: B2 mouse monoclonal antibody (antibody, V domains shown)
VH: EVVLVESGGGLVEPGGSLKLSCVASGFAFSTFAMSWIRQTPEKRLEWVAAISNGGGYTYYPDTLKGRFSISRDNAKNTLYLQMSSLRSEDTAVYYCARRYYDLYFDLWGRGTSLIVSS
VL: DILMTQTPLSLPVSLGDQASISCRSSQNIVHSNGNTYLEWYLQKPGQSPKLLIYKVSNRFSGVPDRFSGSGSGTDFTLKISRVEAEDLGVYYCFQDSHVPLTFGAGTRLELK
notes: raised against PSMGFR; built from framework and CDR entries
For the molecule B1, the binding result is on record as “no binding” in [1], “binds” in [2] and “binds” in [3].

B2: B7 mouse monoclonal antibody (antibody, V domains shown)
VH: EVQVVESGGDLVKPGGSLKLSCAASGFTFSRYGMSWVRQTPDKRLEWVATISSGGTYIYYPDSVKGRFTISRDNAKNTLYLQMSSLKSEDTAMYYCARDNYGSSYDYAMDYWGQGTSVTVSS
VL: DVLMTQTPLSLPVSLGDQASISCRSSQTIVHSNGNTYLEWYLQKPGQSPKLLIYKVSNRFSGVPDRFSGSGSGTDFTLKISRVEAEDLGVYYCFQDSHVPLTFGAGTKLELK
notes: as for B1
For the molecule B2, the binding result in test [1] was “no binding”.

B3: 5C6F3 mouse monoclonal antibody (antibody, V domains shown)
VH: EVMLVESGGGLVKPGGSLKLSCAASGFTFSTYAMSWVRQTPEKRLEWVAAISNGGGYTYYPDSLKGRFTISRDNAKNTLYLQMSSLRSEDTATYYCARRYYDHYFDYWGQGTALTVSS
VL: DVLMTQTPLSLPVSLGDQASISCRSSQTIVHSNGNTYLEWYLQKPGQSPKLLIYKVSNRFSGVPDRFSGSGSGTDFTLKISRVEAEDLGVYYCFQDSHVPLTFGAGTKLELK
notes: raised against PSMGFR; also called MN-5C6F3; anti-PSMGFR antibody 5C6F3
For B3, the binding result in [4] and in [5] was “binds” in each case.

B4: H11 mouse monoclonal antibody (antibody, V domains shown)
VH: EVVLVESGGGLVEPGGSLKLSCVASGFAFSTFAMSWIRQTPEKRLEWVAAISNGGGYTYYPDTLKGRFTISRDNAKNTLYLQMSSLRSEDTAVYYCARRYYDLYFDLWGQGTSLIVSS
VL: DILMTQTPLSLPVSLGDQASISCRSSQNIVHSNGNTYLEWYLQKPGQSPKLLIYKVSNRFSGVPDRFSGSGSGTDFTLKISRVEAEDLGVYYCFQDSHVPLTFGAGTRLELK
notes: as for B1
Take B4: the binding result in [1] was “no binding”.

B5: 29H1 mouse monoclonal antibody (antibody, V domains shown)
VH: EVKLEESGGGLVQPGGSMKLSCAASGFTFSDAWMDWVRQSPEKGLEWVAEIRSKATNHATYYAESVKGRFTISRDDSKSSVYLQMNSLRAEDTGIYYCTPLLYGFAYWGQGTLVTVSA
VL: DVVMTQTPLSLPVSLGDQASISCRSGQSLVHSNGHTYLHWYLQKPGQSPRLLIYKVSNRFSGVPDRFSGSGSRADFTLKISRVEAEDLGVYFCSQTTHVPWTFGGGTKLEIK
notes: raised against N+20/C-27; also called N+20/C-27 antibody 29H1
On to B5, for which the binding result in test [6] was “binds”; in test [4], “no binding”; in [7], “binds”; in test [8] it was “binds”.

B6: 32C1 mouse monoclonal antibody (antibody, V domains shown)
VH: EVKLEESGGGLVQSGGSMKLSCVASGFTFSNYWMNWVRQSPEKGLEWVAEIRLKSNNYAIHYAESVKGRFTISRDDSKSSVYLQMNNLRAEDTGIYYCTRVPGLDAYWGQGTLVTVSA
VL: DVVMTQTPLSLPVSLGDQASISCRSSQSLVHSNGNTYLHWYLQKPGQSPKLLIYKVSNRFSGVPDRFSGSGSGTDFTLKISSVEAEDLGVYFCSQITHVPYTFGGGTNLEIK
notes: raised against N+20/C-27; also called N+20/C-27 antibody 32C1
B6: the binding result in test [6] is recorded as “binds”; in [4], “no binding”; in test [7], “binds”; in test [8], “binds”.

B7: 3C2B1 mouse monoclonal antibody (antibody, V domains shown)
VH: EVMLVESGGGLVKPGGSLKLSCAASGITFSTYTMSWVRQTPEKRLEWVATISTGGDKTYYSDSVKGRFTISRDNAKNNLYLQMSSLRSEDTALYYCARGTTAMYYYAMDYWGQGTSVTVSS
VL: DIVLTQSPASLAVSLGQRATISCRASKSISTSDYNYIHWYQQKPGQPPKLLIYLASNLESGVPARFSGSGSGTDFTLNIHPVEEEDAATYYCQHSRELPLTFGAGTKLELK
notes: raised against PSMGFR; also called MN-3C2B1; anti-PSMGFR antibody 3C2B1
With B7, the binding result in test [4] is “binds”; in test [8], “no binding”; in test [5], “binds”.

B8: 25E6 mouse monoclonal antibody (antibody, V domains shown)
VH: EVQLVESGGDLVKPGGSLKLSCAASGFTFSSYGMSWVRQTPDKRLEWVATISNGGRHTFYPDSVKGRFTISRDNAKNTLYLQMSSLKSEDTAMYLCVRQTGTEGWFAYWGQGTLVTVSA
VL: not shown
notes: raised against PSMGFR; also called MN-25E6; anti-PSMGFR antibody 25E6
B8: the binding result in [9], in [5] and in test [10] was “binds” each time.

B9: 28F9 mouse monoclonal antibody (antibody, V domains shown)
VH: QVQLQQPGAELVQPGASVKLSCKASGYTFTGYFLYWVKQRPGHGLEWIGGIHPSNGDTDFNEKFKNKATLTVDISSSTAYMQLSSLTSEDSAVYYCTLLIGVYWGQGTTLTVSS
VL: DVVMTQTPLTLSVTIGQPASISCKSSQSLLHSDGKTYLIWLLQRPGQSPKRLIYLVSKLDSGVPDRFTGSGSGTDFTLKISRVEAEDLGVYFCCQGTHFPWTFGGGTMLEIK
notes: raised against PSMGFR; also called MN-28F9; anti-PSMGFR antibody 28F9
Take B9: the binding result in [9], in [8], in test [5] and in [10] was “binds” throughout.

B10: 18G12 mouse monoclonal antibody (antibody, V domains shown)
VH: QVQLQQSGAELVKPGASVKLSCKASGYTFTGYFLYWVKQRPGQGLEWIGGINPDNGGIDFNEKFRNKATLTVDKSSSTAYMQLSSLTSEDSAVYYCTLLIGNYWGQGTTLTVSS
VL: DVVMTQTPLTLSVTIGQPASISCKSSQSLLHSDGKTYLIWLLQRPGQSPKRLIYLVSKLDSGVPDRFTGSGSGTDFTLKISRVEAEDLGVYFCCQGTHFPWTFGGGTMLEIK
notes: raised against PSMGFR; also called MN-18G12; anti-PSMGFR antibody 18G12
As to B10, the binding result in test [9], in [8], in test [5] and in test [10] was “binds” each time.

B11: B12 mouse monoclonal antibody (antibody, V domains shown)
VH: QAQLKESGPGLVAPSQSLSITCTVSGFSLTSYGVHWVRQPPGKGLEWLGVIWPGGSTNYNSTLMSRMRIIKDNSKSQVFLKMNSLQIDDTAMYYCARDRTPRVGAWFAYWGQGTLVTVSA
VL: IIVLTQSPASLAVSLGQRATISCRASESVATYGNNFMQWYQQKPGQPPKLLIYLASTLDSGVPARFSGSGSRTDFTLTIDPVEADDAATYYCQQNNEDPPTFGGGTKLEIK
notes: as for B1
As for B11, the binding result in test [1] is on record as “no binding”; in [2], “binds”; in test [3] it was “binds”.

B12: 8C7F3 mouse monoclonal antibody (antibody, V domains shown)
VH: EVMLVESGGGLVKPGGSLKLSCAASGFTFSTYAMSWVRQTPEKRLEWVAAISNGGGYTYYPDSLKGRFTISRDNAKNTLYLQMSSLRSEDTATYYCARRYYDHYFDYWGQGTALTVSS
VL: IIVLTQSPASLAVSLGQRATISCRASESVATYGNNFMQWYQQKPGQPPKLLIYLASTLDSGVPARFSGSGSRTDFTLTIDPVEADDAATYYCQQNNEDPPTFGGGTKLEIK
notes: as for B1
On to B12, for which the binding result in test [1] is “no binding”.

B13: B9 mouse monoclonal antibody (antibody, V domains shown)
VH: EVQVVESGGDLVKPGGSLKLSCAASGFTFSRYGMSWVRQTPDKRLEWVATISSGGTYIYYPDSVKGRFTISRDNAKNTLYLQMSSLKSEDTAMYYCARDNYGSSYDYAMDYWGQGTSVTVSS
VL: QIVLTQSPAIMSASPGEEVTLTCSASSSVSYMHWFQQRPGTSPKLWIYTTSNLASGVPARFSGSGSGTSYSLTISRMEAEDAATYYCQQRSSYPFTFGSGTKLEIK
notes: as for B1
With B13, the binding result in test [1] is “no binding”; in [2], “binds”; in [3], “binds”.

These data come from patent US20220184120A1 (MINERVA BIOTECHNOLOGIES, published 2022).
